What was measured:
CD40 receptor [1] = target: T1, CD40 receptor (Homo sapiens, UniProt P25942); test: NFkB EFC reporter assay cells, CD40L stimulation (FIG. 7); format: cell-based; conditions: 3h or 6h incubation
T1 construct: The cells also endogenously express CD40 (receptor); endogenous in cells; host or cells: U2OS
Excerpt: Often multiple ligands acting through different cellular receptors will stimulate the same signaling pathway allowing the same EFC reporter assay to be used to study the function and inhibition of function for these multiple ligands. For example, in FIGS. 4-6 stimulation and inhibition of TNFα-stimulated NFkB signaling and gene expression was studied.

CD40 receptor [2] = target: T1, CD40 receptor; test: EFC-based versus Luciferase NFκB transcriptional reporter assay, CD40L; format: cell-based; conditions: 6h stimulation
Description: FIG. 13. […] U2OS cells stably transfected with a plasmid encoding an NFκB transcriptional response element driving expression of either the EFC reporter (left panel) or (Firefly) Luciferase-PEST were stimulated with a range of concentrations of CD40L for 6h followed by cell lysis, addition of excess EA, incubation for 1h and determination of luminescence (RLU). The luminescence detected indicates the extent of induction of the respective carrier protein by CD40L.
The EFC-based NFκB transcriptional reporter assay was over 35 times more sensitive to CD40L than the luciferase-based assay. Note that the reporter plasmids used to make the stable cell lines had identical elements with the only significant difference being the identity of the carrier protein. Specifically, both plasmids had the same promoter elements and both had the same protein destabilizing element (PEST sequence).

[3] = system: NFκB (nuclear factor NF-kappa-B p100 subunit) pathway; test: U2OS NFκB pathway reporter cell line (Example 7); format: cell-based; conditions: 5000 cells/well; 360 min at 37 °C
Excerpt: (§1) A reporter cell line was engineered to express an Enzyme Donor (ED) tagged carrier protein controlled by a pathway-inducible transcriptional response element. Pathway activation results in induced expressions of the ED-tagged protein. Addition of exogenous Enzyme Acceptor (EA), and buffer, lyses the cell and forces complementation of the ED and EA enzyme fragments.
(§2) In this example, the cell line is an NFκB (nuclear factor NF-kappa-B p100 subunit) pathway reporter cell line. The cells are U2OS cells that include a nucleic acid encoding a β-galactosidase donor fragment (ED) having the amino acid sequence […] (SEQ ID NO:30) operably coupled to a promoter region comprising an NFκB response element.
(§3) Cells were plated in a 96-well plate and incubated at 37° C. and 5% CO2 to allow the cells to attach and grow. Cells were then stimulated with a control agonist (here, CD40L), using the assay conditions described below. Following stimulation, signal was detected using the PathHunter® ProLabel®/ProLink™ Detection Kit (Eurofins DiscoverX Corporation) according to the recommended protocol.

CD40 receptor [4] = target: T1, CD40 receptor; test: U2OS NF-κB pathway reporter assay with carrier protein (Example 12); format: cell-based; conditions: 5000 cells/well; 6 h at 37 °C
Excerpt: as §1, with “a carrier protein-Enzyme” for “an Enzyme”, “carrier protein-ED-tagged” for “ED-tagged”
In this example, the cell line is a NFκB (nuclear factor NF-kappa-B p100 subunit) pathway reporter cell line. The cells are U2OS cells that include a nucleic acid encoding a reporter fragment and β-galactosidase donor fragment (ED) having the amino acid sequence […] (SEQ ID NO:30) operably coupled to a promoter region comprising a NFκB response element. The cells also endogenously express CD40 (receptor).
as §3

IL-6 receptor = target: T2, IL-6 receptor (Homo sapiens, UniProt P08887); test: HepG2 STAT3 pathway reporter cell line (Example 9); format: cell-based; conditions: 5000 cells/well; 16 h at 37 °C
T2 construct: uses endogenous IL-6 receptor in HepG2 cells to detect IL-6 signaling; endogenous in cells; host or cells: HepG2
T2 sequence (P08887 20-468): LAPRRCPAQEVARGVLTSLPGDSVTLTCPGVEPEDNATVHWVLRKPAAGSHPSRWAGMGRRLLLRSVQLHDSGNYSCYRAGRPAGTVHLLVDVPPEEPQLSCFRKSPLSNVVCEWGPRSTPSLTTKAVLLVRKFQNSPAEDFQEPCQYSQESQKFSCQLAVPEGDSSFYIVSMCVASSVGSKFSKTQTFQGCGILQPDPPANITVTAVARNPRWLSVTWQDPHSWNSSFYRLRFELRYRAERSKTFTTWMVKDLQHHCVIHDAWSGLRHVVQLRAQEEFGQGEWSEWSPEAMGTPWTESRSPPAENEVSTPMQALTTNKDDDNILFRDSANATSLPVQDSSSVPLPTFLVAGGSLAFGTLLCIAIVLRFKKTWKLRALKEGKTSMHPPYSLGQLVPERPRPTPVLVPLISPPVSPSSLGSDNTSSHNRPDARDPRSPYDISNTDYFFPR
T2 sequence (P40189 23-918 partner): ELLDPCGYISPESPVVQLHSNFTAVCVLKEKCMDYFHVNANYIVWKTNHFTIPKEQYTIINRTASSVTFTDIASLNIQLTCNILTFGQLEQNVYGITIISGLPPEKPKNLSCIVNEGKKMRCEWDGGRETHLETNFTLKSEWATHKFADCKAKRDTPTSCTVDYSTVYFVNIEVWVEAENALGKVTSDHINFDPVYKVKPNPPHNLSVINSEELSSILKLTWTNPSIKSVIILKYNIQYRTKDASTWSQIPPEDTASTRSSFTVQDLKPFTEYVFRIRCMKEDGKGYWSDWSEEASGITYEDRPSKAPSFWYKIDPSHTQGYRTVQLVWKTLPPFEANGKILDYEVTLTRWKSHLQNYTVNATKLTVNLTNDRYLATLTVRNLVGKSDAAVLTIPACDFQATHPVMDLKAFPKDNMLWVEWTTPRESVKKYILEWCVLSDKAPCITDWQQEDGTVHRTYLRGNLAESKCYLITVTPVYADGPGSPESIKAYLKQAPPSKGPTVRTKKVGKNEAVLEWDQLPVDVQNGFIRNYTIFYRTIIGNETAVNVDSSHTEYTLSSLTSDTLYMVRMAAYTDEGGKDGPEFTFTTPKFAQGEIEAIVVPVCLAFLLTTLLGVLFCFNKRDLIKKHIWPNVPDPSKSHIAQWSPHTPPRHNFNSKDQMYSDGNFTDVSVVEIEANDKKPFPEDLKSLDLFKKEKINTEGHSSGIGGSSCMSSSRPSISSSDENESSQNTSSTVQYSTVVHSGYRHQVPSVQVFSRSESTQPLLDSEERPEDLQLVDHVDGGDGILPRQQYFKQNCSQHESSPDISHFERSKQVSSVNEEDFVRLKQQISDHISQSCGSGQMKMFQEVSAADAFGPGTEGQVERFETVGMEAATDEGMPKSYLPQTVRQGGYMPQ
Excerpt: as §1
as §2, with “a STAT3 (signal transducer and activator of transcription 3)” for “an NFκB (nuclear factor NF-kappa-B p100 subunit)”, “HepG2” for “U2OS”, “a STAT3” for “an NFκB”
as §3, with “IL-6),” for “CD40L),”
Cell line for HepG2 STAT3 assay uses endogenous IL-6 receptor in HepG2 cells to detect IL-6 signaling.

[5] = target: T3, RANK (Receptor activator of nuclear factor κ B receptor) co-expressed in U2OS NFκB pathway reporter cells (UniProt Q9Y6Q6); test: cell-based or functional assay
T3 sequence (looked up): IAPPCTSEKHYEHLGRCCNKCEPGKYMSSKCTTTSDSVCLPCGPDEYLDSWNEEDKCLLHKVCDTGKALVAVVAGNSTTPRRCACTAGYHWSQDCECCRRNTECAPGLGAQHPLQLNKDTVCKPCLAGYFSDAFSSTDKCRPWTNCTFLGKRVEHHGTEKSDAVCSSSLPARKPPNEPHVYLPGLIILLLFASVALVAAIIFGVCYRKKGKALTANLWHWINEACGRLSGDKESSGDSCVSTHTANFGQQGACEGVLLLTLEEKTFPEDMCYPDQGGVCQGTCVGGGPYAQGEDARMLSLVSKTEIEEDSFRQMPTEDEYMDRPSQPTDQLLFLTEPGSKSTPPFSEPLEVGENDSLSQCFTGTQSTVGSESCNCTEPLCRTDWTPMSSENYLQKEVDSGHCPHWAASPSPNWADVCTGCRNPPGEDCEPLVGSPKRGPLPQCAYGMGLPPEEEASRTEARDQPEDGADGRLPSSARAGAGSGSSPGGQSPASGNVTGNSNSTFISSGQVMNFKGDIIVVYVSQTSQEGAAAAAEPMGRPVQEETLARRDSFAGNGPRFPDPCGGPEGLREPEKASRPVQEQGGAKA

[6] = target: T4, RANK (Receptor activator of nuclear factor κ B receptor) (Homo sapiens, UniProt Q9Y6Q6); test: U2OS RANK-NFκB pathway reporter assay (Example 13); format: cell-based; conditions: 5000 cells/well; 16 h at 37 °C
T4 construct: expressed in transfected cells; host or cells: U2OS
T4 sequence (Q9Y6Q6 30-616): T3 sequence (looked up)
Excerpt: as §1, with “a carrier protein-Enzyme” for “an Enzyme”, “carrier protein-ED-tagged” for “ED-tagged”
In this example, the cell line is a NFκB (Nuclear factor NF-kappa-B p100 subunit) pathway reporter cell line. The cells are U2OS cells that include a nucleic acid encoding a reporter fragment and β-galactosidase donor fragment (ED) having the amino acid sequence […] (SEQ ID NO:30) operably coupled to a promoter region comprising a NFκB response element. To produce the RANK-NFκB reporter assay RANK (Receptor activator of nuclear factor κ B receptor) is co-expressed in the above-developed U2OS NFκB Pathway Reporter cells.
as §3, with “sRANKL),” for “CD40L),”

RANK = test: Comparison of U2OS NF-κB and U2OS RANK-NF-κB reporter cell lines (Example 16); format: cell-based; conditions: FIG. 24b versus FIG. 24a
Excerpt: as §1, with “Two reporter” for “A reporter”, “cell lines were” for “cell line was”, “express a carrier protein-Enzyme” for “express an Enzyme”, “the carrier protein-ED-tagged” for “the ED-tagged”
In this example, a first cell line is a U2OS-NF-κB pathway reporter cell line and the second cell line is U2OS RANK-NF-κB cell line. The cells are U2OS for both the cell lines as prepared in this example 16. The U2OS-NF-κB cell line includes a nucleic acid encoding a reporter fragment and β-galactosidase donor fragment (ED) having the amino acid sequence […] (SEQ ID NO:30) operably coupled to a promoter region comprising a NFκB response element. The U2OS RANK-NF-κB cell line includes a nucleic acid encoding a reporter fragment and β-galactosidase donor fragment (ED) having the amino acid sequence […] (SEQ ID NO:30) operably coupled to a promoter region comprising a NFκB response element followed by co-expression of RANK-CD27 (receptor) in the above-developed U2OS NF-κB pathway reporter cell line.
Assay results for U2OS NF-κB cell line with CD40L ligand is shown in FIG. 24a and assay results for U2OS RANK NF-κB cell line with sRANK ligand is shown in FIG. 24b.

T1 sequence (P25942 21-277): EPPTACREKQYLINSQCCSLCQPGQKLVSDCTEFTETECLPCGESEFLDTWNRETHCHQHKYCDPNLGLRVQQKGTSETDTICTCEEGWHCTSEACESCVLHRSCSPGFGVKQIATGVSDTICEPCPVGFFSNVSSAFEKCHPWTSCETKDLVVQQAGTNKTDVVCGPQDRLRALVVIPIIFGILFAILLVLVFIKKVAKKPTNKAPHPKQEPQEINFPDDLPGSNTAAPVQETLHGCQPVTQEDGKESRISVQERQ

Molecule: CD40L: CD40 ligand, control agonist acting through the CD40 receptor
- response of endogenous CD40 receptor to ligand (CD40 receptor [1]): responded robustly
- sensitivity of EFC-based assay relative to luciferase-based assay (CD40 receptor [2]): over 35 times
- EC50 for control agonist stimulation [3]: 225.4 ng/mL
- signal:background ratio at agonist EMAX [3]: 26.3
- EC50 for control agonist stimulation (CD40 receptor [4]): 88.6 ng/mL
- signal:background ratio (CD40 receptor [4]): 102.8

Molecule: IL-6: control agonist signalling through endogenous IL-6 receptor in HepG2 cells
- EC50 for control agonist stimulation (IL-6 receptor): 0.601 ng/mL
- signal:background ratio at agonist EMAX (IL-6 receptor): 21.3

B1: soluble RANKL (ligand, UniProt O14788 143-317, looked up)
chain: EKAMVDGSWLDLAKRSKLEAQPFAHLTINATDIPSGSHKVSLSSWYHDRGWAKISNMTFSNGKLIVNQDGFYYLYANICFRHHETSGDLATEYLQLMVYVTKTSIKIPSSHTLMKGGSTKYWSGNSEFHFYSINVGGFFKLRSGEEISIEVSNPSLLDPDQDATYFGAFKVRDID
- EC50 for control agonist stimulation, U2OS RANK-NFκB pathway reporter cell line [5]: 4.03 ng/mL
- signal:background ratio, U2OS RANK-NFκB pathway reporter cell line [5]: 24
- EC50 for control agonist stimulation [6]: 4.034 ng/mL
- signal:background ratio [6]: 24.0
- EC50 compared with U2OS NF-κB cell line with CD40L (RANK): lower EC50
- signal:background ratio compared with U2OS NF-κB cell line with CD40L (RANK): larger signal:background ratio

Source: patent US20200308591A1, “PROMOTER REGION ANALYSIS METHODS AND CELLS FOR PRACTICING SAME” (Eurofins DiscoverX Corporation, priority 2019, published 2020)
